Tests used:
[1] = target: cynomolgus 4-1BB extracellular domain, His tag (cynomolgus) (UniProt A9YYE7); test: SPR, Biacore T200; antibody captured on Protein G chip, cynomolgus 4-1BB ECD.His as analyte
[2] = target: human 4-1BB, full-length, on cells (human) (UniProt Q07011); test: flow cytometry on human 4-1BB-expressing CHO-K1 cells, PE goat anti-human IgG Fc, MFI
Chain of human 4-1BB, full-length, on cells (human) (Q07011 24-255 limits assumed): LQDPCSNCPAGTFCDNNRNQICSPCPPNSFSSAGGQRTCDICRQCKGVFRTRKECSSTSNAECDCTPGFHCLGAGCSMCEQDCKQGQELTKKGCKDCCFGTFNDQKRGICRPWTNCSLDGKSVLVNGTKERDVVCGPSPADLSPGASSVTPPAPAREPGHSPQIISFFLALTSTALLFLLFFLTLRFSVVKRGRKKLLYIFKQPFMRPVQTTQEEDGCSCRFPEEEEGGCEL

Chain of BMK4.hIgG2L(Pfizer) (antibody) (VH): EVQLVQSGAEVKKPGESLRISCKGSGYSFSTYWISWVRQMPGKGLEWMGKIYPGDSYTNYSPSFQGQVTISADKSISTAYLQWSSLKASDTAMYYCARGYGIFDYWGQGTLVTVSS
Chain of BMK4.hIgG2L(Pfizer) (antibody) (VL): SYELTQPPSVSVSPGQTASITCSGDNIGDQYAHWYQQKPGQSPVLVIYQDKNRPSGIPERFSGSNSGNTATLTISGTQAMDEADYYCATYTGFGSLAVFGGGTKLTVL
Chain of cynomolgus 4-1BB extracellular domain, His tag (cynomolgus) (A9YYE7 entry or part of it): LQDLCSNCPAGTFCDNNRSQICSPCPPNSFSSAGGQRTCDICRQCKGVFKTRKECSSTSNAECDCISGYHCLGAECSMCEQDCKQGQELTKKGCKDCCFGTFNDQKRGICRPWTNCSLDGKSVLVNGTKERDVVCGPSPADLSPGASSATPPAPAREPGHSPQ

Kd [1] [nM] | EC50 (read off the curve) [2] [nM] | Substance
16 | – | BMK4.hIgG2L(Pfizer) (antibody)
– | 0.2 | WBP342-BMK3.hIgG4 (antibody)

Reference: patent publication US20210230287A1
